What was measured:
[1] = target: T1, MBP-SlMYC2 (Solanum lycopersicum, UniProt A0A3Q7HRZ6 1-689); experiment: competition; unlabeled mutant competitor vs SlATG13b probe; Chemiluminescent EMSA kit (Beyotime); buffer, salt, pH and temperature not stated; settings: protein: recombinant; tags: N-terminal MBP; chain copies: 2
[2] = target: T1, MBP-SlMYC2; experiment: EMSA; Chemiluminescent EMSA kit (Beyotime); buffer, salt, pH and temperature not stated; settings: protein: recombinant; tags: N-terminal MBP; chain copies: 2; label: biotin
[3] = target: T1, MBP-SlMYC2; experiment: competition; unlabeled mutant competitor vs SlATG18a probe; Chemiluminescent EMSA kit (Beyotime); buffer, salt, pH and temperature not stated; settings: protein: recombinant; tags: N-terminal MBP; chain copies: 2
[4] = target: T1, MBP-SlMYC2; experiment: competition; unlabeled mutant competitor vs SlATG18h probe; Chemiluminescent EMSA kit (Beyotime); buffer, salt, pH and temperature not stated; settings: protein: recombinant; tags: N-terminal MBP; chain copies: 2
[5] = target: T1, MBP-SlMYC2; experiment: competition; unlabeled mutant competitor vs SlATG13a probe; Chemiluminescent EMSA kit (Beyotime); buffer, salt, pH and temperature not stated; settings: protein: recombinant; tags: N-terminal MBP; chain copies: 2

T1 sequence (A0A3Q7HRZ6 whole entry): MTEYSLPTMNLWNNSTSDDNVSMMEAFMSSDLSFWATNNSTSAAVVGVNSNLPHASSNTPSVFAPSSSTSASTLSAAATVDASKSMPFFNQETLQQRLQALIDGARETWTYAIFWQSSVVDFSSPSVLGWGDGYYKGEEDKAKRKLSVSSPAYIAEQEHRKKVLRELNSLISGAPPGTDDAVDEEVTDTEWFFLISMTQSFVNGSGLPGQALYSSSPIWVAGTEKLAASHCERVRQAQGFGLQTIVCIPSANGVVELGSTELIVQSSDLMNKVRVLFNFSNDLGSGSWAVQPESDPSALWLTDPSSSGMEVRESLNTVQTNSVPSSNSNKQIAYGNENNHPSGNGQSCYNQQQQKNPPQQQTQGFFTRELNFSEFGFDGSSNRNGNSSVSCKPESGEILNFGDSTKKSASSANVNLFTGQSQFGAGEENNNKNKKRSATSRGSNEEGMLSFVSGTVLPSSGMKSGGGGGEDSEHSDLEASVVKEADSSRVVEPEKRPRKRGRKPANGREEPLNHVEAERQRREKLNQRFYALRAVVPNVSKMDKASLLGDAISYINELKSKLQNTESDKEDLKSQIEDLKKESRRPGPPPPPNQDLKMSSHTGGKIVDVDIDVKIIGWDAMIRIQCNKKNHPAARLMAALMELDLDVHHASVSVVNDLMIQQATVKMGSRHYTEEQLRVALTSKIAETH

B1: SlATG13b mutant probe (G/E-box to TTTTTTTT) (dsDNA)
DNA 1: TTTCTTTGTTTCTTTTTTTTTTTTTACTTC
DNA 2: GAAGTAAAAAAAAAAAAAGAAACAAAGAAA
binding result [1]: no binding

B2: SlATG13b promoter probe (dsDNA)
DNA 1: TTTCTTTGTTTCACACGTTCTTTTTACTTC
DNA 2: GAAGTAAAAAGAACGTGTGAAACAAAGAAA
binding result [2]: binds

B3: SlATG18a mutant probe (G/E-box to TTTTTTTT) (dsDNA)
DNA 1: GGATTGGATCTTTTTTTTTCATGTAGGATA
DNA 2: TATCCTACATGAAAAAAAAAGATCCAATCC
binding result [3]: no binding

B4: SlATG18h mutant probe (G/E-box to TTTTTTTT) (dsDNA)
DNA 1: ATTCCATATATTTTTTTTCTCCGTTTCATC
DNA 2: GATGAAACGGAGAAAAAAAATATATGGAAT
binding result [4]: no binding

B5: SlATG18a promoter probe (dsDNA)
DNA 1: GGATTGGATCTACACGTGGCATGTAGGATA
DNA 2: TATCCTACATGCCACGTGTAGATCCAATCC
binding result [2]: binds

B6: SlATG13a promoter probe (dsDNA)
DNA 1: GAGAACACTTGCTATGTCACGTGCTAAATT
DNA 2: AATTTAGCACGTGACATAGCAAGTGTTCTC
binding result [2]: binds

B7: SlATG13a mutant probe (G/E-box to TTTTTTTT) (dsDNA)
DNA 1: GAGATTTTTTTTTATGTTTTTTTTTAAATT
DNA 2: AATTTAAAAAAAAACATAAAAAAAAATCTC
binding result [5]: no binding

B8: SlATG18h promoter probe (dsDNA)
DNA 1: ATTCCATATAACACATGTCTCCGTTTCATC
DNA 2: GATGAAACGGAGACATGTGTTATATGGAAT
binding result [2]: binds

— paper PMC10031729, “Interaction of methionine sulfoxide reductase B5 with SlMYC2 stimulates the transcription of MeJA-mediated autophagy-related genes in tomato fruit”
